Experiments:
[1] = biological target: T1, recombinant PD-L1 (UniProt Q9NZQ7 19-238); assay: dot blot; recombinant PD-L1 spotted at 4, 10 and 40 ng, probed with the antibody
T1 construct: also called Programmed Death Ligand-1
Source text: Binding activity of anti-EPN1/anti-PD-L1 DVD-IgG bispecific antibodies. […] Purified recombinant proteins were spotted at three dose levels as depicted in FIG. 10, and probed with the four anti-EPN1/anti-PD-L1 bispecific antibodies. […] An antibody specific for a coat protein on the dengue virus served as a negative control.

[2] = biological target: T2, BSA (UniProt P02769 25-607); assay: flow cytometry; BSA-coated latex beads, two-colour dot plot of IMM20059 against anti-CD63
T2 construct: also called BSA-coated beads
T2 sequence (P02769 25-607 limits assumed): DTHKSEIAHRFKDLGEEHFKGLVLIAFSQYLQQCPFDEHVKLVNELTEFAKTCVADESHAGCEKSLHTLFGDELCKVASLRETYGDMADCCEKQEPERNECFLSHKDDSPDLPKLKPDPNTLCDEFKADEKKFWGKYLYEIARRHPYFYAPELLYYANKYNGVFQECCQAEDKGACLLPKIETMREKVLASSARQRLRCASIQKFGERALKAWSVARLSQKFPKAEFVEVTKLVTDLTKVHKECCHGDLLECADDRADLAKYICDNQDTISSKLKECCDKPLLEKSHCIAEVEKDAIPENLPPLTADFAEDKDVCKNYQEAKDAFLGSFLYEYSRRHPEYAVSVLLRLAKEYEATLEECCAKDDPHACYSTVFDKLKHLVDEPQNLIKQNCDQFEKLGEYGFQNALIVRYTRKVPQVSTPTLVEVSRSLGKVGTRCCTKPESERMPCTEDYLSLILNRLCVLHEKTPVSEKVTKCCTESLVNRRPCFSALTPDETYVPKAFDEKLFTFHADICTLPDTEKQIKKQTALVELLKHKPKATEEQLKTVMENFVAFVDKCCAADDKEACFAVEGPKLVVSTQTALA

T1 sequence (Q9NZQ7 19-238 limits assumed): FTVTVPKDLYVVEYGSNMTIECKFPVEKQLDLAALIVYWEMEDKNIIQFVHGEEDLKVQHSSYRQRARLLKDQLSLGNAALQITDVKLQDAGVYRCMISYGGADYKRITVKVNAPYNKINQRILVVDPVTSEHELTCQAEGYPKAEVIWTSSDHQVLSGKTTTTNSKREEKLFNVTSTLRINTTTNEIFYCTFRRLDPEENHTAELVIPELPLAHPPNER

B1: IMM20059 (antibody, V domains shown)
VH: EVQLVESGGGLVQPGGSLRLSCAASGFTFSIHSLNWVRQAPGKGLEWVSYISSNSTTIYYADSVKGRFTISRDNAKDSLYLQMNSLRDEDTAVYYCARDYYCTGGTCFFLPDLWGRGALVTVSS
VL: EIVLTQSPATLSLSPGERATLSCRASQNISNFLAWYQHKPGQAPRLLIYDASIRATGIPARFSGSGSGTDFSLTISSLEPEDFAVYFCQQRYNWLTFGGGTKVEIKR
notes: Recombinantly expressed human IgG1 with the PR045-2H11 VH and VL domains
binding result [1]: no binding (tested: 40 ng) | binding result [2]: no binding

— patent US20210347895A1 (IMMUNOME, published 2021)
